The labels stand for the following.
B1: LINE1-mini (parent)
chain: GGCAGAGCUCAACACAGCGUGGCAAAGUGGCUGUGGCUAGACUGCC

The variants in this data set derive from B1. Nature of the data set: self-cleavage, relative activity (ratio to wild type); higher = more cleavage; in vitro, sequencing; the parent is a self-cleaving ribozyme.
On to A24C G40C, for which the self-cleavage amounted to 0.05.

As to A24C G40A, the self-cleavage was 0.07.

For A24C G40U, the self-cleavage was 0.11.

A24G C37A: the self-cleavage worked out at 0.09.

Take A24G C37G: the self-cleavage turned out to be 0.1.

In the case of A24G C37U, the self-cleavage is 0.05.

On to C23U G35C, for which the self-cleavage was 0.1.

Take C23U G35A: the self-cleavage was 0.19.

As to C23U G35U, the self-cleavage amounted to 0.16.

C23U U38A: the self-cleavage came out at 0.47.

Regarding C23U U38G, the self-cleavage was found to be 0.04.

Regarding C23U U38C, the self-cleavage is 0.93.

Take C23U C37A: the self-cleavage was determined as 0.04.

Turning to C23U C37G, the self-cleavage turned out to be 0.02.

In the case of C23U C37U, the self-cleavage was determined as 0.04.

Turning to A24C G29U, the self-cleavage stood at 0.87.

On to A24C G29A, for which the self-cleavage was found to be 1.02.

Take A24C G29C: the self-cleavage is 0.54.

Regarding A24C A41C, the self-cleavage turned out to be 0.04.

As to A24C A41U, the self-cleavage worked out at 0.26.

Regarding A24C A41G, the self-cleavage came out at 0.25.

On to A24C U34A, for which the self-cleavage turned out to be 0.07.

On to A24C U34C, for which the self-cleavage came out at 0.12.

A24C U34G: the self-cleavage worked out at 0.05.

As for C23U C42A, the self-cleavage worked out at 0.25.

Take C23U C42G: the self-cleavage came out at 0.09.

On to C23U C42U, for which the self-cleavage was found to be 0.91.

On to A24C C45A, for which the self-cleavage came out at 0.16.

As to A24C C45G, the self-cleavage worked out at 0.16.

Turning to A24C C45U, the self-cleavage is 0.7.

A24G A25U: the self-cleavage was 1.3.

For A24G A25G, the self-cleavage is 0.75.

Regarding A24C C37A, the self-cleavage turned out to be 0.03.

Regarding A24C C37U, the self-cleavage amounted to 0.06.

Consider A24C C37G, for which the self-cleavage was 0.02.

In the case of A24C A25U, the self-cleavage amounted to 1.01.

As to A24C A25C, the self-cleavage stood at 0.73.

Regarding A24C A25G, the self-cleavage was 0.89.

On to A24G C31G, for which the self-cleavage came out at 0.05.

Take A24G C31A: the self-cleavage came out at 0.15.

Consider A24G C31U, for which the self-cleavage was determined as 0.29.

For the variant A24C U28A, the self-cleavage turned out to be 0.6.

Consider A24C U28G, for which the self-cleavage stood at 0.35.

Turning to A24C U28C, the self-cleavage was found to be 0.69.

In the case of A24C A39U, the self-cleavage came out at 0.25.

For the variant A24C A39C, the self-cleavage was determined as 1.1.

For the variant A24C A39G, the self-cleavage amounted to 0.07.

As for A24C U38A, the self-cleavage is 0.3.

In the case of A24C U38G, the self-cleavage was determined as 0.01.

As for A24C U38C, the self-cleavage came out at 0.31.

Take C23U U32C: the self-cleavage is 0.61.

With C23U U32G, the self-cleavage worked out at 0.36.

On to C23U U32A, for which the self-cleavage stood at 0.2.

As to A24C U43C, the self-cleavage was 0.1.

A24C U43G: the self-cleavage is 0.37.

With A24C U43A, the self-cleavage is 0.02.

For C23U G36C, the self-cleavage worked out at 0.07.

As for C23U G36U, the self-cleavage came out at 0.04.

For the variant C23U G36A, the self-cleavage amounted to 0.14.

With C23U G33C, the self-cleavage was determined as 0.05.

Regarding C23U G33A, the self-cleavage was found to be 0.15.

For the variant C23U G33U, the self-cleavage worked out at 0.16.

Regarding C23U A24U, the self-cleavage turned out to be 0.84.

Regarding C23U A24G, the self-cleavage was determined as 0.88.

In the case of C23U A24C, the self-cleavage was found to be 0.71.

As for A24C G44U, the self-cleavage amounted to 0.13.

Consider A24C G44A, for which the self-cleavage was 0.18.

As for A24C G44C, the self-cleavage worked out at 0.47.

As for C23U A39G, the self-cleavage was found to be 0.1.

Consider C23U A39U, for which the self-cleavage came to 0.89.

On to C23U A39C, for which the self-cleavage was found to be 0.29.

For A24C G35U, the self-cleavage came out at 0.05.

For A24C G35C, the self-cleavage was 0.06.

Regarding A24C G35A, the self-cleavage is 0.09.

Consider C23U G29C, for which the self-cleavage amounted to 0.52.

For the variant C23U G29A, the self-cleavage was determined as 1.11.

For C23U G29U, the self-cleavage stood at 0.85.

On to C23U G27A, for which the self-cleavage is 1.07.

On to C23U G27C, for which the self-cleavage was 0.73.

In the case of C23U G27U, the self-cleavage was determined as 0.87.

For the variant A24C C42U, the self-cleavage was determined as 0.13.

For the variant A24C C42G, the self-cleavage was determined as 0.05.

For the variant A24C C42A, the self-cleavage worked out at 0.15.

Regarding A24C G36U, the self-cleavage is 0.1.

Regarding A24C G36A, the self-cleavage was determined as 0.48.

For the variant A24C G36C, the self-cleavage is 0.1.

C23U A25G: the self-cleavage was determined as 1.17.

As to C23U A25C, the self-cleavage came to 0.86.

Consider C23U A25U, for which the self-cleavage was 0.93.

As to A24G G27A, the self-cleavage was 0.98.

A24G G27U: the self-cleavage turned out to be 0.57.

Turning to A24G G27C, the self-cleavage was found to be 0.9.

For the variant A24G G29A, the self-cleavage was 0.8.

With A24G C45A, the self-cleavage is 1.47.

For A24G C45G, the self-cleavage amounted to 0.22.

With A24G C45U, the self-cleavage amounted to 1.23.

Turning to A24C C31U, the self-cleavage worked out at 0.12.

A24C C31G: the self-cleavage was 0.03.

In the case of A24C C31A, the self-cleavage came out at 0.06.

In the case of C23U G30U, the self-cleavage came to 1.38.

Turning to C23U G30A, the self-cleavage turned out to be 2.05.

For the variant C23U G30C, the self-cleavage is 2.32.

For the variant C23U U34A, the self-cleavage was determined as 0.28.

On to C23U U34G, for which the self-cleavage was 0.3.

C23U U34C: the self-cleavage amounted to 0.62.

In the case of A24G C46A, the self-cleavage was determined as 1.75.

As to A24G C46G, the self-cleavage was 0.83.

Consider A24G C46U, for which the self-cleavage is 0.93.

Take C23U G44C: the self-cleavage worked out at 0.48.

Regarding C23U G44U, the self-cleavage is 0.32.

Regarding C23U G44A, the self-cleavage worked out at 0.64.

C23U C46U: the self-cleavage turned out to be 1.39.

With C23U C46G, the self-cleavage amounted to 1.58.

For C23U C46A, the self-cleavage came to 1.4.

As for A24C G33C, the self-cleavage is 0.04.

For the variant A24C G33U, the self-cleavage came to 0.04.

Regarding A24C G33A, the self-cleavage was 0.06.

For C23U G40A, the self-cleavage was 0.12.

Take C23U G40C: the self-cleavage was found to be 0.12.

As for C23U G40U, the self-cleavage is 0.11.

Take A24C U32A: the self-cleavage worked out at 0.08.

Consider A24C U32C, for which the self-cleavage is 0.05.

In the case of A24C U32G, the self-cleavage is 0.13.

Regarding A24G, the self-cleavage turned out to be 1.1.

Regarding A24C, the self-cleavage is 0.71.

Turning to C23U A26C, the self-cleavage is 0.64.

For the variant C23U A26U, the self-cleavage was 0.99.

As for C23U A26G, the self-cleavage was found to be 0.88.

C23U C31G: the self-cleavage stood at 0.16.

For the variant C23U C31A, the self-cleavage was 0.24.

For C23U C31U, the self-cleavage was found to be 0.47.

As to C23U U43A, the self-cleavage worked out at 0.07.

Turning to C23U U43C, the self-cleavage stood at 0.43.

For the variant C23U U43G, the self-cleavage was determined as 0.03.

With A24G A39U, the self-cleavage came to 1.31.

Take A24G A39C: the self-cleavage was 0.27.

On to A24G A39G, for which the self-cleavage was 0.07.

Turning to A24G A41C, the self-cleavage was 0.04.

For A24G A41G, the self-cleavage was 0.6.

On to A24G A41U, for which the self-cleavage came out at 0.67.

Consider A24C C46G, for which the self-cleavage came to 0.27.

Turning to A24C C46A, the self-cleavage came out at 0.32.

For A24C C46U, the self-cleavage amounted to 0.64.

Take A24G A26C: the self-cleavage came out at 1.06.

As for A24G A26G, the self-cleavage is 0.5.

Take A24G A26U: the self-cleavage turned out to be 1.28.

For C23U C45G, the self-cleavage is 0.51.

Regarding C23U C45U, the self-cleavage was 1.09.

For C23U C45A, the self-cleavage is 0.47.

With A24C G27U, the self-cleavage amounted to 0.55.

Regarding A24C G27C, the self-cleavage came to 0.77.

On to A24C G27A, for which the self-cleavage was determined as 0.77.

In the case of A24G C42U, the self-cleavage was 0.41.

Regarding A24G C42A, the self-cleavage was determined as 0.19.

For A24G C42G, the self-cleavage amounted to 0.06.

Regarding A24C G30C, the self-cleavage stood at 0.49.

On to A24C G30A, for which the self-cleavage is 0.71.

On to A24C G30U, for which the self-cleavage is 0.79.

For the variant C23U U28A, the self-cleavage was 0.82.

On to C23U U28G, for which the self-cleavage is 0.6.

Turning to C23U U28C, the self-cleavage was determined as 1.37.

Take C23U A41C: the self-cleavage came out at 0.06.

Turning to C23U A41G, the self-cleavage is 0.51.

Turning to C23U A41U, the self-cleavage was 0.57.

As for A24C A26C, the self-cleavage worked out at 0.28.

Turning to A24C A26G, the self-cleavage worked out at 0.33.

As for A24C A26U, the self-cleavage turned out to be 0.43.

The values above are taken from the RNAGym collection of RNA variant scans (doi:10.7554/elife.90254).
